Results on one substance are retold here after patent US20040086512A1.

The target of this test is GST-Vif fusion protein (HIV-1 (HIV-1NL4-3)) (UniProt P12504). As to the kind of experiment: Vif-Vif binding assay (GST pull-down) without peptide, set as 100%.
Sequence of GST-Vif fusion protein (HIV-1 (HIV-1NL4-3)) (P12504 whole entry, the tested form may be a part): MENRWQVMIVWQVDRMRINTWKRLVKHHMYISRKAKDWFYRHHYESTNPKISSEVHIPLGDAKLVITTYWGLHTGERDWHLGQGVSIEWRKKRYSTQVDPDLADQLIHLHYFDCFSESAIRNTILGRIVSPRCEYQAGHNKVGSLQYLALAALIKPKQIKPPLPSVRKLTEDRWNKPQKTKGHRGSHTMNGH

Sequence of in vitro translated ^35S-labeled HIV-1NL4-3 Vif protein, P12504 1-192 (other; ^35S-labeled (in vitro translation in the presence of ^35S-methionine); other documents disagree on this pair) (P12504 whole entry): as the sequence (P12504 whole entry, the tested form may be a part) above

“in vitro translated ^35S-labeled HIV-1NL4-3 Vif protein, P12504 1-192 (other; ^35S-labeled (in vitro translation in the presence of ^35S-methionine); other documents disagree on this pair)” yielded a ^35S-Vif binds with GST-Vif (%) of 100%.
